Results from article PMC11662939, “CRISPR-AsCas12f1 couples out-of-protospacer DNA unwinding with exonuclease activity in the sequential target cleavage”.

How the values were obtained:
AsCas12f1 [1] = biological target: T1, AsCas12f1 (Acidibacillus sulfuroxidans, UniProt A0A2U3D0N8 1-422); assay: smFRET; crRNA-tracrRNA; binding then cleavage, E ~0.5; Assay buffers not in the material; duplexes annealed in 20 mM Tris-HCl pH 8.0, 50 mM NaCl; smFRET with 1-10 mM Mg2+; details: protein: recombinant; tags: N-terminal His6-SUMO, removed by HRV3C; chain copies: 2; label: iCy3dT (+34) and 3' biotin on NTS; 3' Cy5 on crRNA; strands: TS/NTS/crRNA/tracrRNA; DNA blunt; crRNA 3' 20 nt pairs with TS
T1 sequence: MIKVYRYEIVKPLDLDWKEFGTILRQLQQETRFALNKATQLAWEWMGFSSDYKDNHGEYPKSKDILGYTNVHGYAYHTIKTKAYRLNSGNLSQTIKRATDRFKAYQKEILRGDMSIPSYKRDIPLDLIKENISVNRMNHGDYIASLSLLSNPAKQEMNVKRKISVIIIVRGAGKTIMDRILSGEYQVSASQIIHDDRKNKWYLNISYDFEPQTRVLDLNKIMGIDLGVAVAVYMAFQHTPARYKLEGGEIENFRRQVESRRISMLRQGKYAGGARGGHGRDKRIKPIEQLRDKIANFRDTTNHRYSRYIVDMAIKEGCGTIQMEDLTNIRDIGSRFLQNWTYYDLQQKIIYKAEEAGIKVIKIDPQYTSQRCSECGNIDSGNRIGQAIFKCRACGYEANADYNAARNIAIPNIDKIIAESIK

AsCas12f1 [2] = biological target: T1, AsCas12f1; assay: smFRET; partially matched guide/target (16-20mm); low E 0.2-0.4, partial hybridization; Assay buffers not in the material; duplexes annealed in 20 mM Tris-HCl pH 8.0, 50 mM NaCl; smFRET with 1-10 mM Mg2+; details: protein: recombinant; tags: N-terminal His6-SUMO, removed by HRV3C; chain copies: 2; label: iCy3dT and 3' biotin on NTS; 3' Cy5 on crRNA; strands: TS/NTS/crRNA/tracrRNA; DNA blunt; guide mismatched at positions 16-20

| Binder | binding result (AsCas12f1 [1]) | binding result (AsCas12f1 [2]) |
| --- | --- | --- |
| smFRET target DNA with crRNA/tracrRNA (mixed) DNA 1: ACGCACCAGAAACGAAGGCTACGTCCAGGAGCGCACCATCTTCTTCAAGGAATACAAACAAGCTAAGCACAACGTCGTCT DNA 2: AGACGACGTTGTGCTTAGCTTGTTTGTATTCCTTGAAGAAGATGGTGCGCTCCTGGACGTAGCCTTCGTTTCTGGTGCGT RNA 1: GUUUGCGAGCUAGCUUGUGGAGUGUGAACUAUUCCUUGAAGAAGAUGGU RNA 2: GGAUUCGUCGGUUCAGCGACGAUAAGCCGAGAAGUGCCAAUAAAACUGUUAAGUGGUUUGGUAACGCUCGGUAAGGUAGCCAAAAGGCUGAAACUCCGUGCACAAAGACCGCACGGACGCUUCACAUAUAGCUCAUAAAC | binds |  |
| Protospacer 16-20mm DNA with crRNA/tracrRNA (mixed) DNA 1: ACGCACCAGAAACGAAGGCTACGTCCAGGAGCGCGTACGCTTCTTCAAGGAATACAAACAAGCTAAGCACAACGTCGTCT DNA 2: AGACGACGTTGTGCTTAGCTTGTTTGTATTCCTTGAAGAAGCGTACGCGCTCCTGGACGTAGCCTTCGTTTCTGGTGCGT RNA 1: GUUUGCGAGCUAGCUUGUGGAGUGUGAACUAUUCCUUGAAGAAGAUGGU RNA 2: GGAUUCGUCGGUUCAGCGACGAUAAGCCGAGAAGUGCCAAUAAAACUGUUAAGUGGUUUGGUAACGCUCGGUAAGGUAGCCAAAAGGCUGAAACUCCGUGCACAAAGACCGCACGGACGCUUCACAUAUAGCUCAUAAAC |  | binds |
